{"source": "paper PMC4351158", "about": "(Structure (London, England : 1993), 2015)", "origin": "cited, not measured here", "test_system": "DegS", "conditions": "substrate-saturated; ref Sohn and Sauer, 2009; cited from earlier work", "data": [{"molecule": "WT DegS: Wild-type E. coli DegS (residues 27–355) with N-terminal His6 tag replacing the membrane anchor (protein, left off: His6, N-terminal, state not stated) RSLNPLSTPQFDSTDETPASYNLAVRRAAPAVVNVYNRGLNTNSHNQLEIRTLGSGVIMDQRGYIITNKHVINDADQIIVALQDGRVFEALLVGSDSLTDLAVLKINATGGLPTIPINARRVPHIGDVVLAIGNPYNLGQTITQGIISATGRIGLNPTGRQNFLQTDASINHGNSGGALVNSLGELMGINTLSFDKSNDGETPEGIGFAIPFQLATKIMDKLIRDGRVIRGYIGIGGREIAPLHAQGGGIDQLQGIVVNEVSPDGPAANAGIQVNDLIISVDNKPAISALETMDQVAEIRPGSVIPVVVMRDDKQLTLQVTIQEYPATN", "values": [{"measurement": "DegS in the active conformation", "result": "~ 0.3%"}]}]}
